Data as given in patent US20120240246A1, “Variant Calpastatins and Variant Calpains for Modulating the Activity or Stability of Calpain” (St. Jude Children's Research Hospital, priority 2009, published 2012).
Changes are numbered by the printed parent chain. Numbers in names are those of the source. Each block holds one molecule with its values, some of them ahead of it.

Assays:
m-calpain [1] = target: T1, m-calpain (Rattus norvegicus, UniProt Q07009); test: Calpastatin inhibition assay, hydrolysis by m-calpain; format: biochemical; conditions: for IC50 values toward m-calpain (in words): derived from initial rate analysis
T1 construct: diminishing activity >1,000-fold compared to full-length m-calpain; His6 (C); made in house; host or cells: E. coli
T1 sequence (Q07009 1-700): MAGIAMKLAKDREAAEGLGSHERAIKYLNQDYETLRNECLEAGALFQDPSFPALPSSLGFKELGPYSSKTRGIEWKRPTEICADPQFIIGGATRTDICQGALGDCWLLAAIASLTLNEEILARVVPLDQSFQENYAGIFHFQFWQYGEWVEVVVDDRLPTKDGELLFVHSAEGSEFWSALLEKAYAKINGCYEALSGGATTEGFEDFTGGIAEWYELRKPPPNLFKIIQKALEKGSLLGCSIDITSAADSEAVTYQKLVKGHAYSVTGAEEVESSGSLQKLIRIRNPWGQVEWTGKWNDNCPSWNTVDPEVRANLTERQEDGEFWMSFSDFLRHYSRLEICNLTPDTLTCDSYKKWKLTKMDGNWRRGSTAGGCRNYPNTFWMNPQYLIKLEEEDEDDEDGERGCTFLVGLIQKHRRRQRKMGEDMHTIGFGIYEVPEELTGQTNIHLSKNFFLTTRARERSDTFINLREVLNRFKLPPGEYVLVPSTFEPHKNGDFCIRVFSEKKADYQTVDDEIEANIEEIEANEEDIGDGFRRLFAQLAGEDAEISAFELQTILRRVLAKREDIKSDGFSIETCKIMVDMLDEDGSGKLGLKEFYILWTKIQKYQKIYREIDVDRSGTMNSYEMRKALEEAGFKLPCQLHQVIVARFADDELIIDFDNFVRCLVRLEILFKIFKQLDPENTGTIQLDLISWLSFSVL
T1 sequence (Q64537 87-270 partner limits assumed): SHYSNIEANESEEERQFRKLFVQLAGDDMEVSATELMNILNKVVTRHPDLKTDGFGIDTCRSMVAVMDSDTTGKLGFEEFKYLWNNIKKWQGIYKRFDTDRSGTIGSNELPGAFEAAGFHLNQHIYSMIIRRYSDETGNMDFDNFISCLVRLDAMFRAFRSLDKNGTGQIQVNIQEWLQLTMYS
Experimental: (§1) Calpastatin Inhibition Assays. Hydrolysis assays by m-calpain (1 nM or 20 nM), m-calpain mutants (1 nM) and μI-II (1.25-2.5 μM) were performed in 100-μl volumes containing 50 mM HEPES (pH 7.5), 200 mM NaCl, 1 mM DTT, various concentrations of substrate (0-1.5mM SLY-MCA (Sigma) or 0-50 μg/ml BODIPY-casein (Invitrogen)) and increasing inhibitor concentrations: 0-50 nM wild-type or mutant full-length calpastatin, fragments AB and BC, 0-20 μM peptide B1 for m-calpain, and 0-750 μM peptide B1 for μI-II. Duplicates or triplicates were performed for each condition in 96-well plates using a Molecular Devices microplate reader.

[2] = target: T2, μI-II (protease core from μ-calpain) (Rattus norvegicus, UniProt P97571); test: Calpastatin inhibition assay, hydrolysis by μI-II; format: biochemical; conditions: mean ±s.e.m.
T2 construct: the protease core from μ-calpain (μI-II) were expressed in E. coli; made in house; host or cells: E. coli
Experimental: as §1

[3] = target: calpastatin repeat 1 E177Δ mutant (UniProt P27321)
[4] = target: calpastatin repeat 1 K176/E177Δ mutant (UniProt P27321)
[5] = target: calpastatin repeat 1 K176Δ mutant (UniProt P27321)
[6] = target: protease core from µ-calpain (µI-II) (UniProt P97571); test: cell-based or functional assay
calpain = conditions: human sequence; Betts & Anagli (2004); cited from earlier work
m-calpain [7] = test: Hydrolysis activity of m-calpain mutants at the DI-II-DIII interface; format: biochemical, rat; conditions: Ala substitution in DIII of 80 kDa subunit
Experimental: as §1

[8] = target: m-calpain (catalytically active heterodimer used in hydrolysis and autolysis assays) (rat), Q07009; test: cell-based or functional assay
[9] = target: protease core from µ-calpain (µI-II) (UniProt P97571 29-356); test: cell-based or functional assay
heterodimeric calpains = conditions: Wendt, et al. (2004); cited from earlier work

Chain of protease core from µ-calpain (µI-II) (UniProt P97571) (P97571 29-356 limits assumed): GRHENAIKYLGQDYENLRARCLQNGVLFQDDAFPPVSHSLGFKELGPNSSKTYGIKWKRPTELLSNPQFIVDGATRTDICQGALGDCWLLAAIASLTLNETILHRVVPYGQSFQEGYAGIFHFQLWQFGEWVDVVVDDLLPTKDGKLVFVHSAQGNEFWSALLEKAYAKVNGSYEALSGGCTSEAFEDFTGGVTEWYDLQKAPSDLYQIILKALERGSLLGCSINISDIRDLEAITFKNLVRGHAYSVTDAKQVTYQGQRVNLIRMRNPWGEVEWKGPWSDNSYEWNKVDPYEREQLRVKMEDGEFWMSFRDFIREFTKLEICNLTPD
T2 sequence (P97571 55-354 limits assumed): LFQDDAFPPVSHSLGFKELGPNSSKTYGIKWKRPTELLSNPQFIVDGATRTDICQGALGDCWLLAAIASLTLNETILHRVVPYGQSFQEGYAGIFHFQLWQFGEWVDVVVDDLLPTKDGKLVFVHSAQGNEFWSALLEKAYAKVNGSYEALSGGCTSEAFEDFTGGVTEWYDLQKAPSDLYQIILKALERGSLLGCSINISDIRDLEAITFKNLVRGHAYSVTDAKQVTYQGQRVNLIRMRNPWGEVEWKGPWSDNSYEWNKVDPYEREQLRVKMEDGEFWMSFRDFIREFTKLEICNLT
Chain of calpastatin repeat 1 E177Δ mutant (P27321 whole entry, looked up, stated change not applied): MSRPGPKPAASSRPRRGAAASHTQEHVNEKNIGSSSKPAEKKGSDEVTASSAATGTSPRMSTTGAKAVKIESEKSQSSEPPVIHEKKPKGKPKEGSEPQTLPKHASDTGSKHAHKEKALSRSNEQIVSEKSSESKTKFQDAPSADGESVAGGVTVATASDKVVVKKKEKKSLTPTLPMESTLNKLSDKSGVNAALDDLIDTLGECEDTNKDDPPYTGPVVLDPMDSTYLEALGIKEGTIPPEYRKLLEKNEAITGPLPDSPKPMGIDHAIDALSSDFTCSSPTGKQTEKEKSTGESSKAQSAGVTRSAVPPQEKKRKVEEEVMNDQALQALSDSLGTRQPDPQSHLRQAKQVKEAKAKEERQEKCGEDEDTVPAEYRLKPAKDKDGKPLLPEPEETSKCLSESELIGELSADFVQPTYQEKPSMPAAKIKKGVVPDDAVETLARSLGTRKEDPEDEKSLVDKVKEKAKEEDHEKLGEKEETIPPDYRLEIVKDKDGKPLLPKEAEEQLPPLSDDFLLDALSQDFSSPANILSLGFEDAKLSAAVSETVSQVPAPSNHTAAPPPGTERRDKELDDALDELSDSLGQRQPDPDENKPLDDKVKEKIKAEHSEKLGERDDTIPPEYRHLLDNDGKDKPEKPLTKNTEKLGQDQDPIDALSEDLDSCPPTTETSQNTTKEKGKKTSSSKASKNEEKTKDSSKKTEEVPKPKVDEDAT
Chain of calpastatin repeat 1 K176/E177Δ mutant (P27321 whole entry, looked up, stated change not applied): as above
Chain of calpastatin repeat 1 K176Δ mutant (P27321 whole entry, looked up, stated change not applied): as above
Chain of protease core from µ-calpain (µI-II) (UniProt P97571 29-356) (P97571 29-356 limits assumed): as the sequence (P97571 29-356 limits assumed) above

IC50 values toward m-calpain (in words) (m-calpain [1]): low nanomolar | IC50 [2]: 80.5 ± 10.2 µM
Molecule: AB: 57-residue calpastatin repeat 1 fragment with regions A and B, ending at Lys190 (SKTKFQDAPSADGESVAGGVTVATASDKVVVKKKEKKSLTPTLPMESTLNKLSDKSG)

Molecule: m-calpain (catalytically active heterodimer used in hydrolysis and autolysis assays)
autolysis / proteolysis of the complex (SDS-PAGE) [3]: all mutants succumbed to proteolysis within the kink | autolysis / proteolysis of the complex (SDS-PAGE) [4]: all mutants succumbed to proteolysis within the kink | autolysis / proteolysis of the complex (SDS-PAGE) [5]: all mutants succumbed to proteolysis within the kink

IC50 of inhibition of µI-II activity [6]: 80.5 µM
Molecule: calpastatin repeat 1 fragment AB (57 residues, ending at Lys190) (from UniProt P27321 134-190) (peptide)

IC50 of inhibition of µI-II activity [6]: 122 µM
Molecule: calpastatin repeat 1 fragment BC (57 residues, Asp163-Thr219) (from UniProt P27321 163-219) (peptide)

Molecule: Asp^163-Gly^174: N-terminal peptide of the 27-residue region B peptide, human sequence (Betts & Anagli 2004) (TLGGPEETEEEN; UniProt P20810 163-174, looked up, fragment)
calpain inhibition when the intact 27-residue peptide is replaced by N- and C-terminal peptides (calpain): abolished

IC50 of inhibition of µI-II activity [6]: 155 µM
Molecule: rat calpastatin inhibitory repeat 1, short construct Ala134-Thr219 (86 residues) (from UniProt P27321 134-219)

IC50 (m-calpain [1]; mean ±s.e.m.): 0.41 ± 0.08 µM
Molecule: Ac-ALGIKEGTIPPEYRKLLE-NH2 [peptide B1, Ac-ALGIKEGTIPPEYRKLLE-NH2]

B1: R417A: rat m-calpain with R417A substitution in DIII of the 80 kDa subunit (protein, UniProt Q07009 20-700; Q64537 1-270, looked up, variant R417A)
Calpain-2 catalytic subunit: SHERAIKYLNQDYETLRNECLEAGALFQDPSFPALPSSLGFKELGPYSSKTRGIEWKRPTEICADPQFIIGGATRTDICQGALGDCWLLAAIASLTLNEEILARVVPLDQSFQENYAGIFHFQFWQYGEWVEVVVDDRLPTKDGELLFVHSAEGSEFWSALLEKAYAKINGCYEALSGGATTEGFEDFTGGIAEWYELRKPPPNLFKIIQKALEKGSLLGCSIDITSAADSEAVTYQKLVKGHAYSVTGAEEVESSGSLQKLIRIRNPWGQVEWTGKWNDNCPSWNTVDPEVRANLTERQEDGEFWMSFSDFLRHYSRLEICNLTPDTLTCDSYKKWKLTKMDGNWRRGSTAGGCRNYPNTFWMNPQYLIKLEEEDEDDEDGERGCTFLVGLIQKHRARQRKMGEDMHTIGFGIYEVPEELTGQTNIHLSKNFFLTTRARERSDTFINLREVLNRFKLPPGEYVLVPSTFEPHKNGDFCIRVFSEKKADYQTVDDEIEANIEEIEANEEDIGDGFRRLFAQLAGEDAEISAFELQTILRRVLAKREDIKSDGFSIETCKIMVDMLDEDGSGKLGLKEFYILWTKIQKYQKIYREIDVDRSGTMNSYEMRKALEEAGFKLPCQLHQVIVARFADDELIIDFDNFVRCLVRLEILFKIFKQLDPENTGTIQLDLISWLSFSVL
Calpain small subunit 1: MFLVNSFLKGGGGGGGGGGLGGGLGNVLGGLISGAAGGGGGGGGGGGMGLGGGGGGGGTAMRILGGVISAISEAAAQYNPEPPPPRSHYSNIEANESEEERQFRKLFVQLAGDDMEVSATELMNILNKVVTRHPDLKTDGFGIDTCRSMVAVMDSDTTGKLGFEEFKYLWNNIKKWQGIYKRFDTDRSGTIGSNELPGAFEAAGFHLNQHIYSMIIRRYSDETGNMDFDNFISCLVRLDAMFRAFRSLDKNGTGQIQVNIQEWLQLTMYS
m-calpain activity after substitution (fraction of wild type) (m-calpain [7]): one-half

B2: R420A: rat m-calpain with R420A substitution in DIII of the 80 kDa subunit (protein, UniProt Q07009 20-700; Q64537 1-270, looked up, variant R420A)
Calpain-2 catalytic subunit: B1 Calpain-2 catalytic subunit with A398R, R401A
Calpain small subunit 1: B1 Calpain small subunit 1
Ca2+ requirement (m-calpain [7]): doubled | m-calpain activity after substitution (fraction of wild type) (m-calpain [7]): one-quarter

B3: R469A: rat m-calpain with R469A substitution in DIII of the 80 kDa subunit (protein, UniProt Q07009 20-700; Q64537 1-270, looked up, variant R469A)
Calpain-2 catalytic subunit: B1 Calpain-2 catalytic subunit with A398R, R450A
Calpain small subunit 1: B1 Calpain small subunit 1
Ca2+ requirement (m-calpain [7]): doubled | decrease in m-calpain activity (m-calpain [7]): > 60 fold

IC50 of inhibition of substrate hydrolysis by m-calpain [8]: 0.41 µM
B4: Peptide B1 Ac-…-NH2 (peptide)
peptide: Ac-ALGIKEGTIPPEYRKLLE-NH2

IC50 of inhibition of µI-II activity [9]: 24.5 µM
B5: Peptide B1 Ac-ALGIKEGTIPPEYRKLLE-NH2 (peptide)
peptide: Ac-ALGIKEGTIPPEYRKLLE-NH2

IC50 values toward m-calpain (in words) (m-calpain [1]): low nanomolar | IC50 [2]: 155 ± 16.3 µM
B6: repeat 1: 86-residue rat calpastatin inhibitory repeat 1 (residues 134-219), expressed in E. coli (protein, UniProt P27321 134-219, looked up, fragment)
chain: SKTKFQDAPSADGESVAGGVTVATASDKVVVKKKEKKSLTPTLPMESTLNKLSDKSGVNAALDDLIDTLGECEDTNKDDPPYTGPV
modifications: inhibitory repeat 1

inhibition of calpain (m-calpain [1]; FIG. 7 legend, concerted binding to peripheral domains and active site): low-nanomolar
B7: calpastatin: 72 kDa endogenous calpain inhibitor with L domain and four 15-kDa inhibitory repeats (protein, listed as Rattus norvegicus)
chain: MESTLNKLSDKSGVNAALDDLIDTLGECEDTNKDDPPYTGPVVLDPMDSTYLEALGIKEGTIPPEYRKLLEKNEAITGPLPDSPKPMGIDHAIDALSSDFTCSSPTGKQTEKEKSTGESS
affinity of inhibition of heterodimeric calpains (heterodimeric calpains): nanomolar
